B1: CLEAR-box (FA) (dsDNA)
DNA 1: GAGATCACGTGATGAC
DNA 2: GTCATCACGTGATCTC
B2: E-box (dsDNA)
DNA 1: GAGACCACGTGTTGAC
DNA 2: GTCAACACGTGGTCTC
B3: M-box (dsDNA)
DNA 1: GAGATCATGTGTTGAC
DNA 2: GTCAACACATGATCTC

Sequence of MITF (Q08874 287-403): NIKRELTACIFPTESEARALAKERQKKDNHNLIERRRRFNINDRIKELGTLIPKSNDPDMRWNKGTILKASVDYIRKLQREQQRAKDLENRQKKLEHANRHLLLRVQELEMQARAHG

This data set has as its target MITF (UniProt Q08874 287-403). Kind of data set: fluorescence anisotropy; FA: 0.5 nM dsDNA, 10 mM Tris/HCl pH 7.5, 300 mM NaCl, 0.01% Triton X-100, 0.1 mg/mL BSA, 25 °C, 5 min; fit one MITF dimer per dsDNA. Crystals: 0.9 M sodium malonate pH 5.5. The settings on record: protein: recombinant; chain copies: 2; label: 3' fluorescein on strand 1; blunt. On the technique in general: Fluorescence polarisation rises when a labelled molecule tumbles more slowly, as on binding a larger partner.
One may read the Kd as the constant that tells how readily two partners part at equilibrium. Regarding B1, the Kd came to 0.9 ± 0.3 nM. With B2, the Kd is 1.5 ± 0.3 nM. In the case of B3, the Kd was found to be 2.6 ± 0.4 nM.

The values are drawn from article PMC6355916, “MITF has a central role in regulating starvation-induced autophagy in melanoma”.
